Experimental data reported in patent publication US20240409645A1 (DUALYX, published 2024).

T1: human IL-2 receptor (IL-2Rα/IL-2Rβ/γc) (human, UniProt P01589 22-272; P14784 27-551; P31785 23-369)
T1 sequence 1: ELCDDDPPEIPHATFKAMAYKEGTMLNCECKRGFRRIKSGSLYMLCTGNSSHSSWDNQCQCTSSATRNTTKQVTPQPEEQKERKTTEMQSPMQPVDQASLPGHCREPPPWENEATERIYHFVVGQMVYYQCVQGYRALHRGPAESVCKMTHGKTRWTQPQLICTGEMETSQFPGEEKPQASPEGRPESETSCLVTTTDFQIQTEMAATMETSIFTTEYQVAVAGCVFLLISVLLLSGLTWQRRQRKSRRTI
T1 sequence 2: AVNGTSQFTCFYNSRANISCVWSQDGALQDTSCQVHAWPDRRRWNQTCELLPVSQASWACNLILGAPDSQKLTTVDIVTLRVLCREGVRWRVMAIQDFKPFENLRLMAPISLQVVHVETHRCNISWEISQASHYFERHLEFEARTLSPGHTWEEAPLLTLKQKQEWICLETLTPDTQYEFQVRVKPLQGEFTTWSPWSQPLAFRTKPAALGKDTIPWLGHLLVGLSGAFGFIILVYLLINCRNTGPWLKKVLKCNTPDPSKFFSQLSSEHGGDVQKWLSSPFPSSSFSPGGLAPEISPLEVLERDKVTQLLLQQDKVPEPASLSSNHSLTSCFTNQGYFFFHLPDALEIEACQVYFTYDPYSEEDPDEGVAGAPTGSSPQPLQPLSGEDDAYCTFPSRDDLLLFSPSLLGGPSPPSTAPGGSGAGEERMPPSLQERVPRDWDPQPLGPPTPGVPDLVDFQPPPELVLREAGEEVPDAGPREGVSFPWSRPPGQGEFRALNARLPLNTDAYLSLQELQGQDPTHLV
T1 sequence 3: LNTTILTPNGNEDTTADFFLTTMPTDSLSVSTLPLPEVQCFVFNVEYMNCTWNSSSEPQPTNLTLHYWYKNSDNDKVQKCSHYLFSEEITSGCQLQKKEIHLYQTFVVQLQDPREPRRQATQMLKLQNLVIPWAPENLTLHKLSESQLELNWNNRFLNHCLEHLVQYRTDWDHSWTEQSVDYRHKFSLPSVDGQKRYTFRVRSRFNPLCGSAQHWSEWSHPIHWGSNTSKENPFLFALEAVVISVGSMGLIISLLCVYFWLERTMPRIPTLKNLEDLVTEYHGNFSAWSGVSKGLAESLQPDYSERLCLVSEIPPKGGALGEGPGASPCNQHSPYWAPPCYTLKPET


Target: T1, human IL-2 receptor (IL-2Rα/IL-2Rβ/γc)
Assay: cell-based or functional assay

EC50 (nM) pSTAT5, NK, human PBMCs [nM]	EC50 (nM) pSTAT5, Treg, human PBMCs	Fold Max signal (% pSTAT5+) Treg/NK [fold]	Max signal (% pSTAT5+), NK [% pSTAT5+]	Max signal (% pSTAT5+), Treg [% pSTAT5+]	fold EC50 NK/Treg [fold]	Binder
0.186	< 0.1 pM	2	38	94	> 1860	DC00064 (other) chain 1: EVQLVESGGGLVQTGGSLRLSCAASGGTFSRDAMAWFRQVPGKEREFVALISWSGATTNYADSVKGRFAISRDNGKNTVYLQMNRLKPADTAIYYCAADRRPMGSRSYFEPTEYDDWGQGTQVTVSSGGGGSGGGGSGGGGSQVQLVESGGGLVQPGGSLRLSCATSGFTFRNNFMSWVRQAPGKGLEWVSTISYGGESTTYAESVKGRFTISRDNAKNTLYLQMNNLKPEDTAVYYCAKATSYDSIRSGSRGQGTQVTVSSDKTHTCPPCPAPEAAGGPSVFLFPPKPKDTLMISRTPEVTCVVVDVSHEDPEVKFNWYVDGVEVHNAKTKPREEQYNSTYRVVSVLTVLHQDWLNGKEYKCKVSNKALGAPIEKTISKAKGQPREPQVYTLPPSRDELTKNQVSLTCLVKGFYPSDIAVEWESNGQPENNYKTTPPVLDSDGSFLLYSKLTVDKSRWQQGNVFSCSVMHEALHNHYTQKSLSLSPGK chain 2: QVQLVESGGGLVQPGGSLRLSCATSGFTFRNNFMSWVRQAPGKGLEWVSTISYGGESTTYAESVKGRFTISRDNAKNTLYLQMNNLKPEDTAVYYCAKATSYDSIRSGSRGQGTQVTVSSGGGGSGGGGSGGGGSQVQLVESGGGLVQAGGSLTLSCAAPGRTFGTDVVGWFRQAPGKEREFVASISRSGDGIYYDDSVKGRFTISRNNAWNTVNLQMNSLKVEDTAVYYCAAGDGWSTYDYWGQGTQVTVSSGGGGSGGGGSGGGGSEVQLVESGGGLVQTGGSLRLSCAASGGTFSRDAMAWFRQVPGKEREFVALISWSGATTNYADSVKGRFAISRDNGKNTVYLQMNRLKPADTAIYYCAADRRPMGSRSYFEPTEYDDWGQGTQVTVSSGGGGSGGGGSGGGGSDKTHTCPPCPAPEAAGGPSVFLFPPKPKDTLMISRTPEVTCVVVDVSHEDPEVKFNWYVDGVEVHNAKTKPREEQYNSTYRVVSVLTVLHQDWLNGKEYKCKVSNKALGAPIEKTISKAKGQPREPQVYTLPPSRDELTKNQVSLTCLVKGFYPSDIAVEWESNGQPENNYKTTPPVLDSDGSFFLYSRLTVDKSRWQQGNVFSCSVMHEALHNHYTQKSLSLSPGK
0.234	0.00119 nM	7	12	87	197	DC00069 (other) chain 1: EVQLVESGGGLVQTGGSLRLSCAASGGTFSRDAMAWFRQVPGKEREFVALISWSGATTNYADSVKGRFAISRDNGKNTVYLQMNRLKPADTAIYYCAADRRPMGSRSYFEPTEYDDWGQGTQVTVSSGGGGSGGGGSGGGGSQVQLVESGGGLVQPGGSLRLSCATSGFTFRNNFMSWVRQAPGKGLEWVSTISYGGESTTYAESVKGRFTISRDNAKNTLYLQMNNLKPEDTAVYYCAKATSYDSIRSGSRGQGTQVTVSSDKTHTCPPCPAPEAAGGPSVFLFPPKPKDTLMISRTPEVTCVVVDVSHEDPEVKFNWYVDGVEVHNAKTKPREEQYNSTYRVVSVLTVLHQDWLNGKEYKCKVSNKALGAPIEKTISKAKGQPREPQVYTLPPSRDELTKNQVSLTCLVKGFYPSDIAVEWESNGQPENNYKTTPPVLDSDGSFLLYSKLTVDKSRWQQGNVFSCSVMHEALHNHYTQKSLSLSPGK chain 2: QVQLVESGGGLVQPGGSLRLSCATSGFTFRNNFMSWVRQAPGKGLEWVSTISYGGESTTYAESVKGRFTISRDNAKNTLYLQMNNLKPEDTAVYYCAKATSYDSIRSGSRGQGTQVTVSSGGGGSGGGGSGGGGSQVQLVESGGGLVQAGGSLTLSCAAPGRTFGTDVVGWFRQAPGKEREFVASISRSGDGIYYDDSVKGRFTISRNNAWNTVNLQMNSLKVEDTAVYYCAAGDGWSTYDYWGQGTQVTVSSGGGGSGGGGSGGGGSDKTHTCPPCPAPEAAGGPSVFLFPPKPKDTLMISRTPEVTCVVVDVSHEDPEVKFNWYVDGVEVHNAKTKPREEQYNSTYRVVSVLTVLHQDWLNGKEYKCKVSNKALGAPIEKTISKAKGQPREPQVYTLPPSRDELTKNQVSLTCLVKGFYPSDIAVEWESNGQPENNYKTTPPVLDSDGSFFLYSRLTVDKSRWQQGNVFSCSVMHEALHNHYTQKSLSLSPGK
0.217	< 0.1 pM	2	39	95	> 2180	DC00067 (other) chain 1: EVQLVESGGGLVQTGGSLRLSCAASGGTFSRDAMAWFRQVPGKEREFVALISWSGATTNYADSVKGRFAISRDNGKNTVYLQMNRLKPADTAIYYCAADRRPMGSRSYFEPTEYDDWGQGTQVTVSSGGGGSGGGGSGGGGSQVQLVESGGGLVQPGGSLRLSCATSGFTFRNNFMSWVRQAPGKGLEWVSTISYGGESTTYAESVKGRFTISRDNAKNTLYLQMNNLKPEDTAVYYCAKATSYDSIRSGSRGQGTQVTVSSDKTHTCPPCPAPEAAGGPSVFLFPPKPKDTLMISRTPEVTCVVVDVSHEDPEVKFNWYVDGVEVHNAKTKPREEQYNSTYRVVSVLTVLHQDWLNGKEYKCKVSNKALGAPIEKTISKAKGQPREPQVYTLPPSRDELTKNQVSLTCLVKGFYPSDIAVEWESNGQPENNYKTTPPVLDSDGSFLLYSKLTVDKSRWQQGNVFSCSVMHEALHNHYTQKSLSLSPGK chain 2: QVQLVESGGGLVQAGGSLTLSCAAPGRTFGTDVVGWFRQAPGKEREFVASISRSGDGIYYDDSVKGRFTISRNNAWNTVNLQMNSLKVEDTAVYYCAAGDGWSTYDYWGQGTQVTVSSGGGGSGGGGSGGGGSEVQLVESGGGLVQTGGSLRLSCAASGGTFSRDAMAWFRQVPGKEREFVALISWSGATTNYADSVKGRFAISRDNGKNTVYLQMNRLKPADTAIYYCAADRRPMGSRSYFEPTEYDDWGQGTQVTVSSGGGGSGGGGSGGGGSQVQLVESGGGLVQPGGSLRLSCATSGFTFRNNFMSWVRQAPGKGLEWVSTISYGGESTTYAESVKGRFTISRDNAKNTLYLQMNNLKPEDTAVYYCAKATSYDSIRSGSRGQGTQVTVSSDKTHTCPPCPAPEAAGGPSVFLFPPKPKDTLMISRTPEVTCVVVDVSHEDPEVKFNWYVDGVEVHNAKTKPREEQYNSTYRVVSVLTVLHQDWLNGKEYKCKVSNKALGAPIEKTISKAKGQPREPQVYTLPPSRDELTKNQVSLTCLVKGFYPSDIAVEWESNGQPENNYKTTPPVLDSDGSFFLYSRLTVDKSRWQQGNVFSCSVMHEALHNHYTQKSLSLSPGK
0.178	< 0.1 pM	4	27	96	> 1780	DC00066 (other) chain 1: EVQLVESGGGLVQTGGSLRLSCAASGGTFSRDAMAWFRQVPGKEREFVALISWSGATTNYADSVKGRFAISRDNGKNTVYLQMNRLKPADTAIYYCAADRRPMGSRSYFEPTEYDDWGQGTQVTVSSGGGGSGGGGSGGGGSQVQLVESGGGLVQPGGSLRLSCATSGFTFRNNFMSWVRQAPGKGLEWVSTISYGGESTTYAESVKGRFTISRDNAKNTLYLQMNNLKPEDTAVYYCAKATSYDSIRSGSRGQGTQVTVSSDKTHTCPPCPAPEAAGGPSVFLFPPKPKDTLMISRTPEVTCVVVDVSHEDPEVKFNWYVDGVEVHNAKTKPREEQYNSTYRVVSVLTVLHQDWLNGKEYKCKVSNKALGAPIEKTISKAKGQPREPQVYTLPPSRDELTKNQVSLTCLVKGFYPSDIAVEWESNGQPENNYKTTPPVLDSDGSFLLYSKLTVDKSRWQQGNVFSCSVMHEALHNHYTQKSLSLSPGK chain 2: QVQLVESGGGLVQPGGSLRLSCATSGFTFRNNFMSWVRQAPGKGLEWVSTISYGGESTTYAESVKGRFTISRDNAKNTLYLQMNNLKPEDTAVYYCAKATSYDSIRSGSRGQGTQVTVSSGGGGSGGGGSGGGGSEVQLVESGGGLVQTGGSLRLSCAASGGTFSRDAMAWFRQVPGKEREFVALISWSGATTNYADSVKGRFAISRDNGKNTVYLQMNRLKPADTAIYYCAADRRPMGSRSYFEPTEYDDWGQGTQVTVSSGGGGSGGGGSGGGGSQVQLVESGGGLVQAGGSLTLSCAAPGRTFGTDVVGWFRQAPGKEREFVASISRSGDGIYYDDSVKGRFTISRNNAWNTVNLQMNSLKVEDTAVYYCAAGDGWSTYDYWGQGTQVTVSSGGGGSGGGGSGGGGSDKTHTCPPCPAPEAAGGPSVFLFPPKPKDTLMISRTPEVTCVVVDVSHEDPEVKFNWYVDGVEVHNAKTKPREEQYNSTYRVVSVLTVLHQDWLNGKEYKCKVSNKALGAPIEKTISKAKGQPREPQVYTLPPSRDELTKNQVSLTCLVKGFYPSDIAVEWESNGQPENNYKTTPPVLDSDGSFFLYSRLTVDKSRWQQGNVFSCSVMHEALHNHYTQKSLSLSPGK
